Here are results for one substance from patent publication US20030108924A1.

In the test the target is KCNQ1 cardiac potassium channel (KvLQT1), full-length (UniProt P51787). Briefly: cell-based or functional assay.

The substance “KCNE1-D85N (cardiac potassium channel minK subunit polypeptide with asparagine at amino acid 85)” returned an increase of current after the 10th pulse of a depolarizing pulse train of 1.9 fold, a time constant for activation at +40 mV (first time constant) of 368 ms, a time constant for activation at +40 mV (second time constant) of 2150 ms and a time constant of deactivation (tail currents at -50 mV after activation at +60 mV) of 295 ms. Further, the voltage-dependence of activation, V1/2 was 20.6 mV.
